Reference: US20260001928A1 (CORTERIA PHARMACEUTICALS, priority 2022, published 2026)
*1 amine or outer side, *2 acyl side, *3 side chain or, on linkers, in order; H or OH if unused. Where no end group is shown, it is not given here. Side-chain parts run from the residue outwards. [ ]: non-standard residue; d: D form. The star is where a group is joined. C20 diacid = O=C(O)CCCCCCCCCCCCCCCCCCC(=O)*; C16 diacid = O=C(O)CCCCCCCCCCCCCCC(=O)*; γGlu = O=C(O)[C@H](CCC(=O)[*:2])N[*:1]; NMeI = CC[C@H](C)[C@H](NC)C(=O)O; Pentanoyl = CCCCC(=O)*; AEEA = NCCOCCOCC(=O)O; Aib = CC(C)(N)C(=O)O

T1: CRF1R (corticotropin-releasing factor receptor 1), on the CRF1R-overexpression CHO-K1 cell line clone 2 (UniProt P34998 24-415, limits assumed)
T1 sequence (looked up): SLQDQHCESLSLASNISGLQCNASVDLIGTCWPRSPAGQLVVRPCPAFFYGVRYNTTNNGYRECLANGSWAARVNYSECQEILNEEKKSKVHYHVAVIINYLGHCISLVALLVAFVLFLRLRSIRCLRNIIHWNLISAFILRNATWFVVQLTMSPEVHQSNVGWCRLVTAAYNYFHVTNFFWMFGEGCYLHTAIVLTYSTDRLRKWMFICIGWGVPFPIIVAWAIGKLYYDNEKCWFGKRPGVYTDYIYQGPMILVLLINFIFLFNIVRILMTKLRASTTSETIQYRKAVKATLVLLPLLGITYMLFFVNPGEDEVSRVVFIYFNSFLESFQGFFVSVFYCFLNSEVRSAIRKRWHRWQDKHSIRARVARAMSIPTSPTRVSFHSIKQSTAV


Tests used:
[1] = target: Rat CRF2 a (corticotropin-releasing factor receptor 2), on the A7R5 rat aortic smooth muscle cell line (rat, UniProt P47866 20-411); experiment: cell-based or functional assay
Rat CRF2 a (corticotropin-releasing factor receptor 2), on the A7R5 rat aortic smooth muscle cell line, sequence (P47866 20-411): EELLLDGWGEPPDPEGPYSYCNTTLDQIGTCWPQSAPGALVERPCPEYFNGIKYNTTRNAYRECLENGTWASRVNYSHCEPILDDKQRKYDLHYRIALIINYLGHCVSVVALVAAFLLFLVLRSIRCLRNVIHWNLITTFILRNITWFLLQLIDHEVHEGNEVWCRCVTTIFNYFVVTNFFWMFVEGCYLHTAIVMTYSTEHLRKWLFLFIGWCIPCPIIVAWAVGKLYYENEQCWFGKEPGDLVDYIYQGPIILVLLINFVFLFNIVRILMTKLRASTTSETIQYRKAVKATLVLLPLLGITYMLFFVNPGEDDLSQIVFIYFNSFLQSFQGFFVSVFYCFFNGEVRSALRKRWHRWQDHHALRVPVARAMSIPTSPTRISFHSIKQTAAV

[2] = target: T1, CRF1R (corticotropin-releasing factor …); experiment: cell-based or functional assay

| Binder | EC50 [nM] 0% HSA (cAMP, A7R5 rat aortic smooth muscle cells) [1] | EC50 [nM] (cAMP, CRF1R-overexpression CHO-K1 cells) [2] | Emax (% I) (cAMP, 100% = Sauvagine at 100 nM) [2] |
| --- | --- | --- | --- |
| Ac-IVLSLD[dV]PIKLK([γGlu-C16 diacid])KILLEQEKQKEQREQAETN[Aib]QILAQV-NH2 (SMILES CC[C@H](C)[C@H](NC(C)=O)C(=O)N[C@H](C(=O)N[C@@H](CC(C)C)C(=O)N[C@@H](CO)C(=O)N[C@@H](CC(C)C)C(=O)N[C@@H](CC(=O)O)C(=O)N[C@@H](C(=O)N1CCC[C@H]1C(=O)N[C@H](C(=O)N[C@@H](CCCCN)C(=O)N[C@@H](CC(C)C)C(=O)N[C@@H](CCCCNC(=O)CC[C@H](NC(=O)CCCCCCCCCCCCCCC(=O)O)C(=O)O)C(=O)N[C@@H](CCCCN)C(=O)N[C@H](C(=O)N[C@@H](CC(C)C)C(=O)N[C@@H](CC(C)C)C(=O)N[C@@H](CCC(=O)O)C(=O)N[C@@H](CCC(N)=O)C(=O)N[C@@H](CCC(=O)O)C(=O)N[C@@H](CCCCN)C(=O)N[C@@H](CCC(N)=O)C(=O)N[C@@H](CCCCN)C(=O)N[C@@H](CCC(=O)O)C(=O)N[C@@H](CCC(N)=O)C(=O)N[C@@H](CCCNC(=N)N)C(=O)N[C@@H](CCC(=O)O)C(=O)N[C@@H](CCC(N)=O)C(=O)N[C@@H](C)C(=O)N[C@@H](CCC(=O)O)C(=O)N[C@H](C(=O)N[C@@H](CC(N)=O)C(=O)NC(C)(C)C(=O)N[C@@H](CCC(N)=O)C(=O)N[C@H](C(=O)N[C@@H](CC(C)C)C(=O)N[C@@H](C)C(=O)N[C@@H](CCC(N)=O)C(=O)N[C@H](C(N)=O)C(C)C)[C@@H](C)CC)[C@@H](C)O)[C@@H](C)CC)[C@@H](C)CC)C(C)C)C(C)C) [peptide of SEQ ID NO: 168] | 3.23 nM | – | – |
| Pentanoyl-VLSLD[dV]PIKLK([γGlu-C20 diacid])KILLEQEKQKAQREQAETN[Aib]QILAQV-NH2 (SMILES CCCCC(=O)N[C@H](C(=O)N[C@@H](CC(C)C)C(=O)N[C@@H](CO)C(=O)N[C@@H](CC(C)C)C(=O)N[C@@H](CC(=O)O)C(=O)N[C@@H](C(=O)N1CCC[C@H]1C(=O)N[C@H](C(=O)N[C@@H](CCCCN)C(=O)N[C@@H](CC(C)C)C(=O)N[C@@H](CCCCNC(=O)CC[C@H](NC(=O)CCCCCCCCCCCCCCCCCCC(=O)O)C(=O)O)C(=O)N[C@@H](CCCCN)C(=O)N[C@H](C(=O)N[C@@H](CC(C)C)C(=O)N[C@@H](CC(C)C)C(=O)N[C@@H](CCC(=O)O)C(=O)N[C@@H](CCC(N)=O)C(=O)N[C@@H](CCC(=O)O)C(=O)N[C@@H](CCCCN)C(=O)N[C@@H](CCC(N)=O)C(=O)N[C@@H](CCCCN)C(=O)N[C@@H](C)C(=O)N[C@@H](CCC(N)=O)C(=O)N[C@@H](CCCNC(=N)N)C(=O)N[C@@H](CCC(=O)O)C(=O)N[C@@H](CCC(N)=O)C(=O)N[C@@H](C)C(=O)N[C@@H](CCC(=O)O)C(=O)N[C@H](C(=O)N[C@@H](CC(N)=O)C(=O)NC(C)(C)C(=O)N[C@@H](CCC(N)=O)C(=O)N[C@H](C(=O)N[C@@H](CC(C)C)C(=O)N[C@@H](C)C(=O)N[C@@H](CCC(N)=O)C(=O)N[C@H](C(N)=O)C(C)C)[C@@H](C)CC)[C@@H](C)O)[C@@H](C)CC)[C@@H](C)CC)C(C)C)C(C)C) [peptide of SEQ ID NO: 222] | 0.18 nM | – | – |
| Ac-IVLSLD[dV]PIKLK([AEEA-γGlu-C20 diacid])KILLEQEKQKEQREQAETN[Aib]QILAQV-NH2 (SMILES CC[C@H](C)[C@H](NC(C)=O)C(=O)N[C@H](C(=O)N[C@@H](CC(C)C)C(=O)N[C@@H](CO)C(=O)N[C@@H](CC(C)C)C(=O)N[C@@H](CC(=O)O)C(=O)N[C@@H](C(=O)N1CCC[C@H]1C(=O)N[C@H](C(=O)N[C@@H](CCCCN)C(=O)N[C@@H](CC(C)C)C(=O)N[C@@H](CCCCNC(=O)COCCOCCNC(=O)CC[C@H](NC(=O)CCCCCCCCCCCCCCCCCCC(=O)O)C(=O)O)C(=O)N[C@@H](CCCCN)C(=O)N[C@H](C(=O)N[C@@H](CC(C)C)C(=O)N[C@@H](CC(C)C)C(=O)N[C@@H](CCC(=O)O)C(=O)N[C@@H](CCC(N)=O)C(=O)N[C@@H](CCC(=O)O)C(=O)N[C@@H](CCCCN)C(=O)N[C@@H](CCC(N)=O)C(=O)N[C@@H](CCCCN)C(=O)N[C@@H](CCC(=O)O)C(=O)N[C@@H](CCC(N)=O)C(=O)N[C@@H](CCCNC(=N)N)C(=O)N[C@@H](CCC(=O)O)C(=O)N[C@@H](CCC(N)=O)C(=O)N[C@@H](C)C(=O)N[C@@H](CCC(=O)O)C(=O)N[C@H](C(=O)N[C@@H](CC(N)=O)C(=O)NC(C)(C)C(=O)N[C@@H](CCC(N)=O)C(=O)N[C@H](C(=O)N[C@@H](CC(C)C)C(=O)N[C@@H](C)C(=O)N[C@@H](CCC(N)=O)C(=O)N[C@H](C(N)=O)C(C)C)[C@@H](C)CC)[C@@H](C)O)[C@@H](C)CC)[C@@H](C)CC)C(C)C)C(C)C) [peptide of SEQ ID NO: 231] | 1.32 nM | > 250 nM | 10 % I |
| [NMeI]VLSLD[dV]PIKLK([γGlu-C20 diacid])KILLEQEKQKEQREQAETN[Aib]QILAQV-NH2 (N-terminus assumed; SMILES CC[C@H](C)[C@H](NC)C(=O)N[C@H](C(=O)N[C@@H](CC(C)C)C(=O)N[C@@H](CO)C(=O)N[C@@H](CC(C)C)C(=O)N[C@@H](CC(=O)O)C(=O)N[C@@H](C(=O)N1CCC[C@H]1C(=O)N[C@H](C(=O)N[C@@H](CCCCN)C(=O)N[C@@H](CC(C)C)C(=O)N[C@@H](CCCCNC(=O)CC[C@H](NC(=O)CCCCCCCCCCCCCCCCCCC(=O)O)C(=O)O)C(=O)N[C@@H](CCCCN)C(=O)N[C@H](C(=O)N[C@@H](CC(C)C)C(=O)N[C@@H](CC(C)C)C(=O)N[C@@H](CCC(=O)O)C(=O)N[C@@H](CCC(N)=O)C(=O)N[C@@H](CCC(=O)O)C(=O)N[C@@H](CCCCN)C(=O)N[C@@H](CCC(N)=O)C(=O)N[C@@H](CCCCN)C(=O)N[C@@H](CCC(=O)O)C(=O)N[C@@H](CCC(N)=O)C(=O)N[C@@H](CCCNC(=N)N)C(=O)N[C@@H](CCC(=O)O)C(=O)N[C@@H](CCC(N)=O)C(=O)N[C@@H](C)C(=O)N[C@@H](CCC(=O)O)C(=O)N[C@H](C(=O)N[C@@H](CC(N)=O)C(=O)NC(C)(C)C(=O)N[C@@H](CCC(N)=O)C(=O)N[C@H](C(=O)N[C@@H](CC(C)C)C(=O)N[C@@H](C)C(=O)N[C@@H](CCC(N)=O)C(=O)N[C@H](C(N)=O)C(C)C)[C@@H](C)CC)[C@@H](C)O)[C@@H](C)CC)[C@@H](C)CC)C(C)C)C(C)C) [peptide of SEQ ID NO: 218] | 0.13 nM | – | – |
| Ac-IVLSLD[dV]PIKLK([AEEA-γGlu-C20 diacid])KILLEQEKQKKQREQAETN[Aib]QILAQV-NH2 (SMILES CC[C@H](C)[C@H](NC(C)=O)C(=O)N[C@H](C(=O)N[C@@H](CC(C)C)C(=O)N[C@@H](CO)C(=O)N[C@@H](CC(C)C)C(=O)N[C@@H](CC(=O)O)C(=O)N[C@@H](C(=O)N1CCC[C@H]1C(=O)N[C@H](C(=O)N[C@@H](CCCCN)C(=O)N[C@@H](CC(C)C)C(=O)N[C@@H](CCCCNC(=O)COCCOCCNC(=O)CC[C@H](NC(=O)CCCCCCCCCCCCCCCCCCC(=O)O)C(=O)O)C(=O)N[C@@H](CCCCN)C(=O)N[C@H](C(=O)N[C@@H](CC(C)C)C(=O)N[C@@H](CC(C)C)C(=O)N[C@@H](CCC(=O)O)C(=O)N[C@@H](CCC(N)=O)C(=O)N[C@@H](CCC(=O)O)C(=O)N[C@@H](CCCCN)C(=O)N[C@@H](CCC(N)=O)C(=O)N[C@@H](CCCCN)C(=O)N[C@@H](CCCCN)C(=O)N[C@@H](CCC(N)=O)C(=O)N[C@@H](CCCNC(=N)N)C(=O)N[C@@H](CCC(=O)O)C(=O)N[C@@H](CCC(N)=O)C(=O)N[C@@H](C)C(=O)N[C@@H](CCC(=O)O)C(=O)N[C@H](C(=O)N[C@@H](CC(N)=O)C(=O)NC(C)(C)C(=O)N[C@@H](CCC(N)=O)C(=O)N[C@H](C(=O)N[C@@H](CC(C)C)C(=O)N[C@@H](C)C(=O)N[C@@H](CCC(N)=O)C(=O)N[C@H](C(N)=O)C(C)C)[C@@H](C)CC)[C@@H](C)O)[C@@H](C)CC)[C@@H](C)CC)C(C)C)C(C)C) [peptide of SEQ ID NO: 230] | 0.11 nM | > 250 nM | 30 % I |
| Ac-IVLSLD[dV]PIKLK([γGlu-C20 diacid])KILLEQEKQKEQREQAETN[Aib]QILAQV-NH2 (SMILES CC[C@H](C)[C@H](NC(C)=O)C(=O)N[C@H](C(=O)N[C@@H](CC(C)C)C(=O)N[C@@H](CO)C(=O)N[C@@H](CC(C)C)C(=O)N[C@@H](CC(=O)O)C(=O)N[C@@H](C(=O)N1CCC[C@H]1C(=O)N[C@H](C(=O)N[C@@H](CCCCN)C(=O)N[C@@H](CC(C)C)C(=O)N[C@@H](CCCCNC(=O)CC[C@H](NC(=O)CCCCCCCCCCCCCCCCCCC(=O)O)C(=O)O)C(=O)N[C@@H](CCCCN)C(=O)N[C@H](C(=O)N[C@@H](CC(C)C)C(=O)N[C@@H](CC(C)C)C(=O)N[C@@H](CCC(=O)O)C(=O)N[C@@H](CCC(N)=O)C(=O)N[C@@H](CCC(=O)O)C(=O)N[C@@H](CCCCN)C(=O)N[C@@H](CCC(N)=O)C(=O)N[C@@H](CCCCN)C(=O)N[C@@H](CCC(=O)O)C(=O)N[C@@H](CCC(N)=O)C(=O)N[C@@H](CCCNC(=N)N)C(=O)N[C@@H](CCC(=O)O)C(=O)N[C@@H](CCC(N)=O)C(=O)N[C@@H](C)C(=O)N[C@@H](CCC(=O)O)C(=O)N[C@H](C(=O)N[C@@H](CC(N)=O)C(=O)NC(C)(C)C(=O)N[C@@H](CCC(N)=O)C(=O)N[C@H](C(=O)N[C@@H](CC(C)C)C(=O)N[C@@H](C)C(=O)N[C@@H](CCC(N)=O)C(=O)N[C@H](C(N)=O)C(C)C)[C@@H](C)CC)[C@@H](C)O)[C@@H](C)CC)[C@@H](C)CC)C(C)C)C(C)C) [peptide of SEQ ID NO: 213] | 0.45 nM | – | – |
